Measured values taken from patent US20230189773A1, “ENGINEERED CELLS, ANIMAL MODELS, AND USES THEREOF FOR MODELING LOW GRADE GLIOMA (LGG)” (Washington University, priority 2021, published 2023).
Entries after “also recorded” stand apart in the source; their conditions may differ.

B1: recombinant murine Cxcl10 protein: murine recombinant Cxcl10 (PeproTech), a cytokine belonging to the CXC chemokine family (protein, UniProt P17515 22-98, looked up)
C-X-C motif chemokine 10: IPLARTVRCNCIHIDDGPVRMRAIGKLEIIPASLSCPRVEIIATMKKNDEQRCLNPESKTIKNLMKAFSQKRSKRAP

Tests used:
NF1-null iNPC-LGGs = experiment: PD0325901 treatment of Rag1-/- mice harboring NF1-null iNPC-LGGs; format: in vivo, mouse; details: 5 mg/kg/day intraperitoneal, 6 days a week, four weeks, from 1 mpi
Description: (§1) Twenty 4-week-old Rag1^−/− mice of both sexes harboring NF1-null iNPC-LGGs 1 month post-injection were intraperitoneally injected either with 10% DMSO in saline or with 5 mg/kg/day PD0325901 (Sigma-Aldrich), 6 days a week, for a total of four weeks. Treated mice were collected for histopathologic analysis. For in vitro experiments, iNPCs, iGRPs and iOPCs were treated with 10 nM PD0325901 for 24 h prior to immunocytochemical analysis.
Injected mice were transcardially perfused at 1, 3 or 6 months post-injection, initially with Ringer's solution, and then followed by ice-cold 4% paraformaldehyde. Whole mouse brains were harvested, post-fixed in 4% PFA and dehydrated in 70% ethanol. Dehydrated samples were then paraffin-embedded and serially sectioned (5 μm). Hematoxylin and eosin (H&E), as well as antibody immunohistochemical staining, were performed using the primary antibodies, Vectastain ABC kit (Vector Laboratories) and appropriate biotinylated secondary antibodies provided in TABLE 1.
Immunostaining was performed using the primary antibodies listed in TABLE 1 with appropriate Alexa Fluor-conjugated secondary antibodies. Bis-benzamide (Hoechst) was used as a nuclear counterstain.

[1] = test system: NF1-null iNPCs, iGRPs and iOPCs; experiment: In vitro PD0325901 treatment of iNPCs, iGRPs and iOPCs (Ki67, cleaved caspase-3 immunocytochemistry); format: cell-based, human; details: 10 nM, 24 h
Description: as §1
(§2) Immunocytochemistry was performed on hiPSCs, iNPCs, iGRPs, iOPCs and astrocytes using the primary antibodies described in Additional file 1: Table 51. […] Appropriate secondary Alexa-Fluor-conjugated secondary antibodies diluted to 1:200 were employed and bis-benzamide (Hoechst) was used as a nuclear counterstain. Cells were mounted with Immu-mount (Fisher) and imaged on a Leica DMi1 fluorescent microscope using the Leica LAS X software, as per manufacturer's instructions.

NF1-null iNPCs [2] = experiment: Direct cell count of NF1-null iNPCs after recombinant Cxcl10; format: cell-based, human; details: for decrease in cell number (direct cell count): NF1-null iNPCs
Description: RAS activity (ThermoFisher), cAMP (Fisher) detection, BrdU proliferation assays (Roche) and direct cell counting were performed according to the manufacturer's instructions. Cxcl10 (Ray Biotech) ELISA assays were performed according to the manufacturer's instructions. Each assay was performed using a minimum of three independently generated biological replicates.
(§3) Cxcl10 cDNA (Sino Biological) and lentiviral packaging vectors, or KIAA1549:BRAF adenoviral DNA, were transfected in HEK293T cells using Fugene HD (Promega) following the manufacturer's instructions. Viral supernatants were collected 48 h post-transfection, filtered, and used to directly infect iNPCs and iGRPs for 24 h. Cxcl10-GFP expression was confirmed by Western blotting as previously described. KIAA1549:BRAF-infected cells were puromycin-selected for 2 weeks prior to further expansion. Infected cells were used for intracranial injections in Rag1^−/− neonatal mice. For cell proliferation, cell death and differentiation analyses, iNPCs were treated with 25 or 100 pg/mL of murine recombinant Cxcl10 (PeproTech) for 24 h. Each experiment was performed a minimum of three times on independently generated samples.

NF1-null iNPCs [3] = experiment: Cleaved caspase-3+ cells (programmed cell death) in NF1-null iNPCs after recombinant Cxcl10; format: cell-based, human; details: for increase in programmed cell death (cleaved caspase-3+ cells): NF1-null iNPCs
Description: as §2, §3

NF1-null iNPCs [4] = experiment: GFAP+ astrocytic differentiation of NF1-null iNPCs after recombinant Cxcl10; format: cell-based, human; details: for increase in GFAP+ astrocytic differentiation: NF1-null iNPCs
Description: as §2, §3

[5] = relative to vehicle-treated LGGs
[6] = 25 pg/mL recombinant Cxcl10, 24 h
[7] = 100 pg/mL recombinant Cxcl10, 24 h
[8] = range over ectopic Cxcl10 expression or 25 or 100 pg/mL recombinant Cxcl10 (FIG. 19A)
[9] = range over ectopic Cxcl10 expression and recombinant Cxcl10 treatments (FIG. 19B)

Molecule | presence of Ku80+ iNPC-LGGs after treatment (NF1-null iNPC-LGGs) | tumor cell apoptosis (TUNEL+ cells) (NF1-null iNPC-LGGs; [5]) | tumor cell proliferation (Ki67+ cells) (NF1-null iNPC-LGGs; [5]) | apoptosis (cleaved caspase-3) [1] | cell proliferation (Ki67) [1] | decrease in cell number (direct cell count) (NF1-null iNPCs [2]; [6]) | decrease in cell number (direct cell count) (NF1-null iNPCs [2]; [7]) | NF1-null iNPC cell numbers decrease (direct cell count) (NF1-null iNPCs [2]; [8]) | increase in programmed cell death (cleaved caspase-3+ cells) (NF1-null iNPCs [3]; [6]) | increase in programmed cell death (cleaved caspase-3+ cells) (NF1-null iNPCs [3]; [7]) | percent of cleaved caspase-3+ cells increases (NF1-null iNPCs [3]; [8]) | increase in GFAP+ astrocytic differentiation (NF1-null iNPCs [4]; [6]) | increase in GFAP+ astrocytic differentiation (NF1-null iNPCs [4]; [7]) | differentiated GFAP+ cells undergoing apoptosis (cleaved caspase-3+) (NF1-null iNPCs [4]; [9]) | share of total cells undergoing apoptosis (cleaved caspase-3+) that are GFAP+ (NF1-null iNPCs [4]; [9])
O=C(NOC[C@H](O)CO)c1ccc(F)c(F)c1Nc1ccc(I)cc1F [PD0325901] | still detectable | increased hiPSC-LGG cell apoptosis; also recorded: increased tumor cell apoptosis | reduced tumor cell proliferation; also recorded: decreased | increased hiPSC-LGG cell apoptosis; also recorded: increases apoptosis | reduced proliferation; also recorded: decreased cell proliferation; also recorded: decreases proliferation | – | – | – | – | – | – | – | – | – | –
B1 | – | – | – | – | – | 9% | 13% | 9-20% | 4.6 fold | 20.5 fold | 8.3-20.5 fold | 8.2 fold | 20.5 fold | 95-100% | 83.3-88.8%
